To fix the notation:
B1: toripalimab Fab L.R59Y (Fab, V domains shown)
VH: QGQLVQSGAEVKKPGASVKVSCKASGYTFTDYEMHWVRQAPIHGLEWIGVIESETGGTAYNQKFKGRVTITADKSTSTAYMELSSLRSEDTAVYYCAREGITTVATTYYWYFDVWGQGTTVTVSS
VL: DVVMTQSPLSLPVTLGQPASISCRSSQSIVHSNGNTYLEWYLQKPGQSPQLLIYKVSNYFSGVPDRFSGSGSGTDFTLKISRVEAEDVGVYYCFQGSHVPLTFGQGTKLEIK
notes: as the heavy chain of Sm3; light chain of Sm3 with this change; numbers count from the chain's first residue; source: Brevibacillus, culture supernatant (ammonium sulfate precipitate); not shown: 6xHis, C-terminal, kept; 6xHN, C-terminal, kept
B2: toripalimab Fab L.V99H (Fab, V domains shown)
VH: B1 VH
VL: B1 VL with Y59R, V99H
notes: as for B1
B3: toripalimab Fab L.V99E (Fab, V domains shown)
VH: B1 VH
VL: B1 VL with Y59R, V99E
notes: as for B1
B4: toripalimab Fab H.I51A (Fab, V domains shown)
VH: B1 VH with I51A
VL: B1 VL with Y59R
notes: heavy chain of Sm3 with this change; numbers count from the chain's first residue; as the light chain of Sm3; source: Brevibacillus, culture supernatant (ammonium sulfate precipitate); not shown: 6xHis, C-terminal, kept; 6xHN, C-terminal, kept
B5: toripalimab Fab L.F60Y (Fab, V domains shown)
VH: B1 VH
VL: B1 VL with Y59R, F60Y
notes: as for B1
B6: toripalimab Fab L.S61A (Fab, V domains shown)
VH: B1 VH
VL: B1 VL with Y59R, S61A
notes: as for B1
B7: toripalimab Fab L.V99I (Fab, V domains shown)
VH: B1 VH
VL: B1 VL with Y59R, V99I
notes: as for B1
B8: toripalimab Fab L.V99L (Fab, V domains shown)
VH: B1 VH
VL: B1 VL with Y59R, V99L
notes: as for B1
B9: toripalimab Fab L.V99A (Fab, V domains shown)
VH: B1 VH
VL: B1 VL with Y59R, V99A
notes: as for B1
B10: toripalimab Fab L.H98Y (Fab, V domains shown)
VH: B1 VH
VL: B1 VL with Y59R, H98Y
notes: as for B1
B11: toripalimab Fab L.Q95A (Fab, V domains shown)
VH: B1 VH
VL: B1 VL with Y59R, Q95A
notes: as for B1
B12: toripalimab Fab L.F94Y (Fab, V domains shown)
VH: B1 VH
VL: B1 VL with Y59R, F94Y
notes: as for B1
B13: toripalimab Fab L.V99K (Fab, V domains shown)
VH: B1 VH
VL: B1 VL with Y59R, V99K
notes: as for B1
B14: toripalimab Fab L.F60A (Fab, V domains shown)
VH: B1 VH
VL: B1 VL with Y59R, F60A
notes: as for B1
B15: toripalimab Fab L.V99D (Fab, V domains shown)
VH: B1 VH
VL: B1 VL with Y59R, V99D
notes: as for B1
B16: toripalimab Fab L.S97A (Fab, V domains shown)
VH: B1 VH
VL: B1 VL with Y59R, S97A
notes: as for B1
B17: toripalimab Fab L.V99G (Fab, V domains shown)
VH: B1 VH
VL: B1 VL with Y59R, V99G
notes: as for B1
B18: toripalimab Fab L.V99F (Fab, V domains shown)
VH: B1 VH
VL: B1 VL with Y59R, V99F
notes: as for B1
B19: toripalimab Fab L.F94A (Fab, V domains shown)
VH: B1 VH
VL: B1 VL with Y59R, F94A
notes: as for B1
B20: toripalimab Fab L.S61Y (Fab, V domains shown)
VH: B1 VH
VL: B1 VL with Y59R, S61Y
notes: as for B1
B21: toripalimab Fab L.H98A (Fab, V domains shown)
VH: B1 VH
VL: B1 VL with Y59R, H98A
notes: as for B1

Residue numbers refer to the chain shown, from its start.

In one test the target is T1, human programmed cell death protein 1 (hPD-1) C93S (aa 24-167) (Homo sapiens, UniProt Q15116, C93S).
T1 construct: made as a fusion with a TEV site and human Fc; the Fc was cut off with TEV protease; source: Expi293F, purified (Protein A, TEV cleavage of Fc, SEC; monomer fractions); not shown: Fc (human), C-terminal, cleaved
T1 sequence (Q15116 24-167 C93S): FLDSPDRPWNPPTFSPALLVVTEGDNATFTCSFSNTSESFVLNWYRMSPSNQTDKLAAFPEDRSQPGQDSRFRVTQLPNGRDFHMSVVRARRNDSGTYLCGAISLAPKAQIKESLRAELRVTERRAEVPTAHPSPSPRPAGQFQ
Put plainly: SPR; Carterra LSA; Fab from the ammonium sulfate precipitate of the culture supernatant immobilised on a NiHC200M chip; hPD-1 (1-1024 nM) or mPD-1-Fc (4-1024 nM) as analyte, fourfold dilution series, no regeneration; HBS-EP pH 7.4, 25 °C; medians over the spots of a construct, KD = koff/kon. The settings on record: one partner purified. Summed up:
(§1)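 Human PD-1 (1–1024 nM) or mouse PD-1-Fc (4–1024 nM), in fourfold series, was flowed without regeneration over Fabs captured in duplicate on a NiHC200M chip (Carterra LSA, 25 °C), using 10 min association and 5 min dissociation. The Fabs had been recovered from Brevibacillus culture supernatants by ammonium sulfate precipitation and redissolved in HBS-EP. For binding constants, KD was defined as koff/kon from per-construct medians, with rates fitted by the kdka model under slow- or fast-dissociation settings (best fit) and unconfirmed binders set to kon 10^3 […] and koff 10^−2 s^−1.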
B1: the Kd is less than 0.356 nM, the koff was less than 1e-05 s⁻¹ and the on-rate (kon) was 28100 M⁻¹ s⁻¹.
The corresponding values for B2 are 23.1 nM, 0.000239 s⁻¹ and 10400 M⁻¹ s⁻¹.
B3: the dissociation constant Kd was less than 1.03 nM, the koff was less than 1e-05 s⁻¹ and the association rate constant (kon) came to 9690 M⁻¹ s⁻¹.
Take B4: the affinity, expressed as Kd, was 1.06 nM; the koff turned out to be 1.6e-05 s⁻¹; the kon turned out to be 15100 M⁻¹ s⁻¹.
The corresponding values for B5 are 0.608 nM, 1.12e-05 s⁻¹ and 18400 M⁻¹ s⁻¹.
B6 displayed an equilibrium dissociation constant (Kd) of 1.39 nM, a dissociation rate constant (koff) of 2.72e-05 s⁻¹ and a kon of 19600 M⁻¹ s⁻¹.
B7 registered an equilibrium dissociation constant (Kd) of less than 0.7 nM, an off-rate constant (koff) of less than 1e-05 s⁻¹ and an on-rate (kon) of 14300 M⁻¹ s⁻¹.
Turning to B8, the equilibrium dissociation constant (Kd) was less than 1.43 nM, the dissociation rate constant (koff) was less than 1e-05 s⁻¹ and the kon came out at 7020 M⁻¹ s⁻¹.
Turning to B9, the affinity, expressed as Kd, was 1.61 nM; the koff is 3.6e-05 s⁻¹; the association rate constant (kon) turned out to be 22300 M⁻¹ s⁻¹.
In turn, B10 displayed a Kd of 0.737 nM, a dissociation rate constant (koff) of 1.34e-05 s⁻¹ and a kon of 18100 M⁻¹ s⁻¹.
As for B11, the dissociation constant Kd was determined as 2.28 nM, the koff stood at 4.22e-05 s⁻¹ and the kon came to 18500 M⁻¹ s⁻¹.
Take B12: the Kd was less than 0.968 nM, the koff was less than 1e-05 s⁻¹ and the kon turned out to be 10300 M⁻¹ s⁻¹.
B13 yielded a Kd of 30.7 nM, a koff of 0.000131 s⁻¹ and a kon of 4260 M⁻¹ s⁻¹.
On to B14, for which the Kd was less than 0.669 nM, the dissociation rate constant (koff) is less than 1e-05 s⁻¹ and the kon came to 14900 M⁻¹ s⁻¹.
In the case of B15, the Kd turned out to be 1.62 nM, the koff came to 1.8e-05 s⁻¹ and the kon stood at 11100 M⁻¹ s⁻¹.
For B16, the dissociation constant Kd turned out to be 1.88 nM, the off-rate (koff) turned out to be 4.49e-05 s⁻¹ and the association rate constant (kon) was determined as 23800 M⁻¹ s⁻¹.
In the case of B17, the dissociation constant Kd was found to be 1.75 nM, the off-rate constant (koff) worked out at 1.44e-05 s⁻¹ and the association rate constant (kon) is 8230 M⁻¹ s⁻¹.
Regarding B18, the Kd was determined as 2.51 nM, the koff is 4.24e-05 s⁻¹ and the on-rate constant (kon) is 16900 M⁻¹ s⁻¹.
B19 yielded a dissociation constant Kd of less than 2.46 nM, an off-rate (koff) of less than 1e-05 s⁻¹ and a kon of 4060 M⁻¹ s⁻¹.
Consider B20, for which the Kd was less than 0.5 nM, the dissociation rate constant (koff) was less than 1e-05 s⁻¹ and the association rate constant (kon) amounted to 20000 M⁻¹ s⁻¹.
In the same order, the values of B21 are less than 0.436 nM, less than 1e-05 s⁻¹ and 22900 M⁻¹ s⁻¹.

The target in the next test is T2, mouse programmed cell death protein 1 Fc fusion protein (mPD-1-Fc), mPD-1 C60S (aa 25-167) (Mus musculus, UniProt Q02242, stabilised).
T2 construct: not cleaved; source: Expi293F, purified (Protein A, SEC; dimeric fraction); not shown: Fc (human), C-terminal, kept
The description is as above. The settings on record: one partner purified. The gist of the method:
as §1
The molecule B1 came in with a Kd of 213 nM, a koff of 0.00916 s⁻¹ and a kon of 43000 M⁻¹ s⁻¹.
With B2, the dissociation constant Kd came to 334 nM, the off-rate constant (koff) is 0.00991 s⁻¹ and the kon amounted to 29600 M⁻¹ s⁻¹.
The corresponding values for B3 are 201 nM, 0.00742 s⁻¹ and 36800 M⁻¹ s⁻¹.
On to B4, for which the affinity, expressed as Kd, was 630 nM; the koff came to 0.04 s⁻¹; the association rate constant (kon) was 63500 M⁻¹ s⁻¹.
B5 showed an equilibrium dissociation constant (Kd) of 133 nM, a koff of 0.00463 s⁻¹ and a kon of 34800 M⁻¹ s⁻¹.
For B6, binding was characterised by a dissociation constant (Kd) of 103 nM, the off-rate (koff) turned out to be 0.00447 s⁻¹ and the on-rate constant (kon) came out at 43400 M⁻¹ s⁻¹.
Molecule B7 returned a Kd of 289 nM, an off-rate constant (koff) of 0.014 s⁻¹ and an association rate constant (kon) of 48500 M⁻¹ s⁻¹.
B8: the Kd was determined as 407 nM, the dissociation rate constant (koff) was found to be 0.00629 s⁻¹ and the on-rate constant (kon) turned out to be 15500 M⁻¹ s⁻¹.
B9 had a Kd of 15.2 nM, an off-rate (koff) of 0.000353 s⁻¹ and an on-rate (kon) of 23300 M⁻¹ s⁻¹.
B10 returned an equilibrium dissociation constant (Kd) of 396 nM, a koff of 0.0148 s⁻¹ and an association rate constant (kon) of 37400 M⁻¹ s⁻¹.
In the case of B11, the Kd was 130 nM, the koff was found to be 0.00506 s⁻¹ and the kon was determined as 39000 M⁻¹ s⁻¹.
Regarding B12, the dissociation constant Kd was 155 nM, the off-rate (koff) was 0.0129 s⁻¹ and the association rate constant (kon) was 83200 M⁻¹ s⁻¹.
With B13, the affinity, expressed as Kd, was 285 nM; the koff came to 0.00439 s⁻¹; the kon was 15400 M⁻¹ s⁻¹.
B14 showed a dissociation constant Kd of 182 nM, a koff of 0.00605 s⁻¹ and a kon of 33300 M⁻¹ s⁻¹.
B15 showed a Kd of 19.8 nM, an off-rate constant (koff) of 0.000759 s⁻¹ and an on-rate constant (kon) of 38300 M⁻¹ s⁻¹.
In turn, B16 gave a Kd of 678 nM, an off-rate (koff) of 0.0274 s⁻¹ and a kon of 40400 M⁻¹ s⁻¹.
The corresponding values for B17 are less than 0.848 nM, less than 1e-05 s⁻¹ and 11800 M⁻¹ s⁻¹.
In the same order, the values of B18 are 123 nM, 0.00104 s⁻¹ and 8450 M⁻¹ s⁻¹.
The corresponding values for B19 are 177 nM, 0.000967 s⁻¹ and 5460 M⁻¹ s⁻¹.
Turning to B20, the dissociation constant (Kd) worked out at 103 nM, the koff worked out at 0.0044 s⁻¹ and the on-rate constant (kon) stood at 42500 M⁻¹ s⁻¹.
The molecule B21 showed a Kd of 120 nM, an off-rate (koff) of 0.00523 s⁻¹ and a kon of 43600 M⁻¹ s⁻¹.

The record behind these values is paper PMC10663500, “High-throughput analysis system of interaction kinetics for data-driven antibody design” (Scientific Reports, 2023).
